Reference: patent US20240255509A1, “COMPOSITIONS AND METHODS RELATED TO K180 DIMETHYLATED H1.0 PROTEIN” (Aelan Cell Technologies, Inc., priority 2016, published 2024)

Assays:
Assay in all cases: In vitro methylation with GLP, products identified by LC-MS
Format in all cases: biochemical
[1] = target: T1, recombinant human H1.0 protein (Homo sapiens, UniProt P07305); conditions: 1 μg full-length protein
T1 construct: full-length recombinant human H1.0 (NEB, M2501S); purchased NEB M2501S (H1.0); M0235S (G9A)
Method: (§1) In order to identify the precise sites of methylation by G9A and GLP methyltransferases on histone H1.0, in vitro methylation assays were performed and subsequently analyzed by Liquid Chromatography and High-resolution Mass Spectrometry (LC-MS) analysis. Methylation reactions were set up using either G9A methyltransferase (NEB, M0235S, Lot #0031201) or GLP methyltransferase (Cayman Chemical, 10755). The methyl donor in each reaction was unlabeled S-Adenosyl-L-Methionine (NEB, B9003S). […]
(§2) For the Liquid Chromatography and High-resolution Mass Spectrometry (LC-MS) analysis, samples were prepared as described above and about 1 μg o the product was injected onto a Thermo Scientific Easy nLC system configured with a 10 cm×100 um trap column and a 25 cm×100 um ID resolving column. […] This ensured optimal full-scan data for quantification. […]
(§3) Protein identification was performed using Thermo Scientific Proteome Discoverer version 1.4 (including Sequest and Percolator algorithms) using RefSeqHuman sequence database. […] Protein quantification was performed using Pinpoint version 1.4 software. The Pinpoint quantification workflow included importing the Proteome Discoverer .msf files as spectral libraries. Identified peptides were subsequently quantified in MS .raw files using the Pinpoint peak finding, chromatographic alignment and area calculation algorithms. […]

[2] = target: T2, unmodified H1.0 peptide ([…] (SEQ ID NO:42)) (Homo sapiens, UniProt P07305); conditions: 10 U enzyme, 3.2 mM S-Adenosyl-L-Methionine, 37° C. 1 hour, spectral counts
T2 construct: purchased ThermoFisher Scientific (peptide); NEB (G9A) M0235S (G9A)
Method: as §1, §2, §3

[3] = target: T3, K180 dimethylated H1.0 peptide (SEQ ID NO:3) (Homo sapiens, UniProt P07305); conditions: K180 dimethylated peptide as substrate
T3 construct: purchased ThermoFisher Scientific (peptide); Cayman Chemical (GLP) 10755 (GLP)
Method: as §1, §2, §3

B1: GLP: recombinant G9A-like protein (GLP) methyltransferase (Cayman Chemical, 10755) (protein, UniProt Q9H9B1 2-1298, looked up)
Histone-lysine …: AAADAEAVPARGEPQQDCCVKTELLGEETPMAADEGSAEKQAGEAHMAADGETNGSCENSDASSHANAAKHTQDSARVNPQDGTNTLTRIAENGVSERDSEAAKQNHVTADDFVQTSVIGSNGYILNKPALQAQPLRTTSTLASSLPGHAAKTLPGGAGKGRTPSAFPQTPAAPPATLGEGSADTEDRKLPAPGADVKVHRARKTMPKSVVGLHAASKDPREVREARDHKEPKEEINKNISDFGRQQLLPPFPSLHQSLPQNQCYMATTKSQTACLPFVLAAAVSRKKKRRMGTYSLVPKKKTKVLKQRTVIEMFKSITHSTVGSKGEKDLGASSLHVNGESLEMDSDEDDSEELEEDDGHGAEQAAAFPTEDSRTSKESMSEADRAQKMDGESEEEQESVDTGEEEEGGDESDLSSESSIKKKFLKRKGKTDSPWIKPARKRRRRSRKKPSGALGSESYKSSAGSAEQTAPGDSTGYMEVSLDSLDLRVKGILSSQAEGLANGPDVLETDGLQEVPLCSCRMETPKSREITTLANNQCMATESVDHELGRCTNSVVKYELMRPSNKAPLLVLCEDHRGRMVKHQCCPGCGYFCTAGNFMECQPESSISHRFHKDCASRVNNASYCPHCGEESSKAKEVTIAKADTTSTVTPVPGQEKGSALEGRADTTTGSAAGPPLSEDDKLQGAASHVPEGFDPTGPAGLGRPTPGLSQGPGKETLESALIALDSEKPKKLRFHPKQLYFSARQGELQKVLLMLVDGIDPNFKMEHQNKRSPLHAAAEAGHVDICHMLVQAGANIDTCSEDQRTPLMEAAENNHLEAVKYLIKAGALVDPKDAEGSTCLHLAAKKGHYEVVQYLLSNGQMDVNCQDDGGWTPMIWATEYKHVDLVKLLLSKGSDINIRDNEENICLHWAAFSGCVDIAEILLAAKCDLHAVNIHGDSPLHIAARENRYDCVVLFLSRDSDVTLKNKEGETPLQCASLNSQVWSALQMSKALQDSAPDRPSPVERIVSRDIARGYERIPIPCVNAVDSEPCPSNYKYVSQNCVTSPMNIDRNITHLQYCVCIDDCSSSNCMCGQLSMRCWYDKDGRLLPEFNMAEPPLIFECNHACSCWRNCRNRVVQNGLRARLQLYRTRDMGWGVRSLQDIPPGTFVCEYVGELISDSEADVREEDSYLFDLDNKDGEVYCIDARFYGNVSRFINHHCEPNLVPVRVFMAHQDLRFPRIAFFSTRLIEAGEQLGFDYGERFWDIKGKLFSCRCGSPKCRHSSAALAQRQASAAQEAQEDGLPDTSSAAAADPL
sites of methylation on full-length H1.0 [1]: methylates a large number of lysine residues on the C-terminal tail of H1.0, lacking the specificity of G9A
peptides dimethylated at H1.0K180, % of all peptides [2]: 96.6%
peptides further methylated (H1.0K180 and H1.0K174), % of peptides [3]: 1.02%
